Source: patent US9260500B2, “Peptide and use thereof” (Takeda Pharmaceutical Company Limited, priority 2009, dated 2016)
Starred links: 1 amine or outer side, 2 acyl side, 3 side chain; linkers in the order of their positions; H or OH if unused. Non-standard residues stand in square brackets, D forms with d. *: point of attachment. Ala(piperidin-4-yl) = O=C([C@H](CC1CCN([*:3])CC1)N[*:1])[*:2]; Phe(4-NH2) = Nc1ccc(C[C@H](N)C(=O)O)cc1; 1Nal = N[C@@H](Cc1cccc2ccccc12)C(=O)O; 4Pal = N[C@@H](Cc1ccncc1)C(=O)O; d(pGlu) = O=C1CC[C@H](C(=O)O)N1; Cha = N[C@@H](CC1CCCCC1)C(=O)O; Isobutyryl = CC(C)C(=O)*; Nle = CCCC[C@H](N)C(=O)O; Abu = CC[C@H](N)C(=O)O; Aib = CC(C)(N)C(=O)O; Bz = O=C(c1ccccc1)*

What was measured:
human Y2 receptor [1] = target: T1, human Y2 receptor (Homo sapiens, UniProt P49146); experiment: Human Y2 Receptor G Protein Binding Assay (GBA), [35S]GTPγS; assay type: biochemical; settings: EC50 of test compound/EC50 of PYY(3-36) (PYY3-36 taken as 1), hY2R/CHO membrane fraction
T1 construct: expressed in transfected cells; membrane fraction
T1 sequence (P49146 1-381): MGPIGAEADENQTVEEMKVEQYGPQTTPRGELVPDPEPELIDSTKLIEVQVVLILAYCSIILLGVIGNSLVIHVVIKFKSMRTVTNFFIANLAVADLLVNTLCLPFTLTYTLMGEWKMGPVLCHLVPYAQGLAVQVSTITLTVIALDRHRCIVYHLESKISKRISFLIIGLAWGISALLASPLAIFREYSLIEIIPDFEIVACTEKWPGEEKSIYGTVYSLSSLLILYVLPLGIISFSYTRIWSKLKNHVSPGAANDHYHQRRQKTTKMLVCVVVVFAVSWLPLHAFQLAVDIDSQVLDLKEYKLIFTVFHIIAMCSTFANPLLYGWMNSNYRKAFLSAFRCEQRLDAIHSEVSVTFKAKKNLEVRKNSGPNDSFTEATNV
Summary of the method: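 Agonism measured as [35S]GTPγS binding, read by GF/C filtration and scintillation counting after 120 min at room temperature, using human Y2 membranes at 1 μg protein/mL in pH 7.4 Tris/MgCl2/NaCl/GDP buffer. Compound serially diluted 100 μM–1 nM; EC50 normalized to PYY(3-36) (ratio = compound/PYY).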

human Y2 receptor [2] = target: T1, human Y2 receptor; experiment: Receptor Binding Assay (RBA) for Human Y2, [125I]-PYY displacement on hY2R/CHO membrane fraction; settings: IC50 of test compound/IC50 of PYY(3-36) (PYY(3-36) taken as 1)
Summary of the method: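 hY2R stably expressed in CHO/dhfr− cells; membrane fraction prepared from cells disrupted in 10 mM NaHCO3, 5 mM EDTA buffer with protease inhibitors. Binding read as displacement of [125I]-PYY.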

Row | Substance | GBA EC50 Ratio (human Y2 receptor [1]) | RBA IC50 Ratio (human Y2 receptor [2])
1 | Ac-[Glu23, D-Pro24, Nle25, Pya(4)26, Cha27,36, Aib28,31, Lys30]-PYY(23-36) (Ac-E[dP][Nle][4Pal][Cha][Aib]NK[Aib]TRQR[Cha]-NH2; SMILES CCCC[C@H](NC(=O)[C@H]1CCCN1C(=O)[C@H](CCC(=O)O)NC(C)=O)C(=O)N[C@@H](Cc1ccncc1)C(=O)N[C@@H](CC1CCCCC1)C(=O)NC(C)(C)C(=O)N[C@@H](CC(N)=O)C(=O)N[C@@H](CCCCN)C(=O)NC(C)(C)C(=O)N[C@H](C(=O)N[C@@H](CCCNC(=N)N)C(=O)N[C@@H](CCC(N)=O)C(=O)N[C@@H](CCCNC(=N)N)C(=O)N[C@@H](CC1CCCCC1)C(N)=O)[C@@H](C)O) [compound No. 227] | 6.9 | 7.5
2 | Ac-[D-Pro24, Pya(4)26, Cha27,36, Aib28,31, Lys30]-PYY(24-36) (Ac-[dP]R[4Pal][Cha][Aib]NK[Aib]TRQR[Cha]-NH2; SMILES CC(=O)N1CCC[C@@H]1C(=O)N[C@@H](CCCNC(=N)N)C(=O)N[C@@H](Cc1ccncc1)C(=O)N[C@@H](CC1CCCCC1)C(=O)NC(C)(C)C(=O)N[C@@H](CC(N)=O)C(=O)N[C@@H](CCCCN)C(=O)NC(C)(C)C(=O)N[C@H](C(=O)N[C@@H](CCCNC(=N)N)C(=O)N[C@@H](CCC(N)=O)C(=O)N[C@@H](CCCNC(=N)N)C(=O)N[C@@H](CC1CCCCC1)C(N)=O)[C@@H](C)O) [compound No. 251] | 0.56 | 0.68
3 | Benzoyl-[Cha27,36, Nal(1)28, Aib31]-PYY(25-36) (Bz-RH[Cha][1Nal]NL[Aib]TRQR[Cha]-NH2; SMILES CC(C)C[C@H](NC(=O)[C@H](CC(N)=O)NC(=O)[C@H](Cc1cccc2ccccc12)NC(=O)[C@H](CC1CCCCC1)NC(=O)[C@H](Cc1c[nH]cn1)NC(=O)[C@H](CCCNC(=N)N)NC(=O)c1ccccc1)C(=O)NC(C)(C)C(=O)N[C@H](C(=O)N[C@@H](CCCNC(=N)N)C(=O)N[C@@H](CCC(N)=O)C(=O)N[C@@H](CCCNC(=N)N)C(=O)N[C@@H](CC1CCCCC1)C(N)=O)[C@@H](C)O) [compound No. 63] | 25 | 34
4 | Ac-[D-Pro24, Nle25, Pya(4)26, Cha27,28,36, Aib31]-PYY(23-36) (Ac-S[dP][Nle][4Pal][Cha][Cha]NL[Aib]TRQR[Cha]-NH2; SMILES CCCC[C@H](NC(=O)[C@H]1CCCN1C(=O)[C@H](CO)NC(C)=O)C(=O)N[C@@H](Cc1ccncc1)C(=O)N[C@@H](CC1CCCCC1)C(=O)N[C@@H](CC1CCCCC1)C(=O)N[C@@H](CC(N)=O)C(=O)N[C@@H](CC(C)C)C(=O)NC(C)(C)C(=O)N[C@H](C(=O)N[C@@H](CCCNC(=N)N)C(=O)N[C@@H](CCC(N)=O)C(=O)N[C@@H](CCCNC(=N)N)C(=O)N[C@@H](CC1CCCCC1)C(N)=O)[C@@H](C)O) [compound No. 140] | 2.6 | 20
5 | Ac-[D-Pro24, Aib25,28,31, Pya(4)26, Cha27,36, Lys30]-PYY(23-36) (Ac-S[dP][Aib][4Pal][Cha][Aib]NK[Aib]TRQR[Cha]-NH2; SMILES CC(=O)N[C@@H](CO)C(=O)N1CCC[C@@H]1C(=O)NC(C)(C)C(=O)N[C@@H](Cc1ccncc1)C(=O)N[C@@H](CC1CCCCC1)C(=O)NC(C)(C)C(=O)N[C@@H](CC(N)=O)C(=O)N[C@@H](CCCCN)C(=O)NC(C)(C)C(=O)N[C@H](C(=O)N[C@@H](CCCNC(=N)N)C(=O)N[C@@H](CCC(N)=O)C(=O)N[C@@H](CCCNC(=N)N)C(=O)N[C@@H](CC1CCCCC1)C(N)=O)[C@@H](C)O) [compound No. 236] | 1.7 | 8.4
6 | [D-pGlu24, Pya(4)26, Cha27,36, Aib28,31, Lys30]-PYY(24-36) ([d(pGlu)]R[4Pal][Cha][Aib]NK[Aib]TRQR[Cha]-NH2; SMILES C[C@@H](O)[C@H](NC(=O)C(C)(C)NC(=O)[C@H](CCCCN)NC(=O)[C@H](CC(N)=O)NC(=O)C(C)(C)NC(=O)[C@H](CC1CCCCC1)NC(=O)[C@H](Cc1ccncc1)NC(=O)[C@H](CCCNC(=N)N)NC(=O)[C@H]1CCC(=O)N1)C(=O)N[C@@H](CCCNC(=N)N)C(=O)N[C@@H](CCC(N)=O)C(=O)N[C@@H](CCCNC(=N)N)C(=O)N[C@@H](CC1CCCCC1)C(N)=O) [compound No. 250] | 1.1 | 2
7 | Isobutanoyl-[Abu26, Cha27,28,36, His30, Aib31]-PYY(25-36) (Isobutyryl-R[Abu][Cha][Cha]NH[Aib]TRQR[Cha]-NH2; SMILES CC[C@H](NC(=O)[C@H](CCCNC(=N)N)NC(=O)C(C)C)C(=O)N[C@@H](CC1CCCCC1)C(=O)N[C@@H](CC1CCCCC1)C(=O)N[C@@H](CC(N)=O)C(=O)N[C@@H](Cc1c[nH]cn1)C(=O)NC(C)(C)C(=O)N[C@H](C(=O)N[C@@H](CCCNC(=N)N)C(=O)N[C@@H](CCC(N)=O)C(=O)N[C@@H](CCCNC(=N)N)C(=O)N[C@@H](CC1CCCCC1)C(N)=O)[C@@H](C)O) [compound No. 92] | 20 | 22
8 | Ac-[D-Pro24, Pya(4)26, Ala(4Pip)27, Aib28,31, Lys30, Cha36]-PYY(23-36) [compound No. 309] (Ac-S[dP]R[4Pal][Ala(piperidin-4-yl)][Aib]NK[Aib]TRQR[Cha]-NH2; SMILES CC(=O)N[C@@H](CO)C(=O)N1CCC[C@@H]1C(=O)N[C@@H](CCCNC(=N)N)C(=O)N[C@@H](Cc1ccncc1)C(=O)N[C@@H](CC1CCNCC1)C(=O)NC(C)(C)C(=O)N[C@@H](CC(N)=O)C(=O)N[C@@H](CCCCN)C(=O)NC(C)(C)C(=O)N[C@H](C(=O)N[C@@H](CCCNC(=N)N)C(=O)N[C@@H](CCC(N)=O)C(=O)N[C@@H](CCCNC(=N)N)C(=O)N[C@@H](CC1CCCCC1)C(N)=O)[C@@H](C)O) | 3.9 | 3.8
9 | Ac-[D-Pro24, Pya(4)26, Cha27,36, Aib28,31, Lys30]-PYY(22-36) (Ac-AS[dP]R[4Pal][Cha][Aib]NK[Aib]TRQR[Cha]-NH2; SMILES CC(=O)N[C@@H](C)C(=O)N[C@@H](CO)C(=O)N1CCC[C@@H]1C(=O)N[C@@H](CCCNC(=N)N)C(=O)N[C@@H](Cc1ccncc1)C(=O)N[C@@H](CC1CCCCC1)C(=O)NC(C)(C)C(=O)N[C@@H](CC(N)=O)C(=O)N[C@@H](CCCCN)C(=O)NC(C)(C)C(=O)N[C@H](C(=O)N[C@@H](CCCNC(=N)N)C(=O)N[C@@H](CCC(N)=O)C(=O)N[C@@H](CCCNC(=N)N)C(=O)N[C@@H](CC1CCCCC1)C(N)=O)[C@@H](C)O) [compound No. 219] | 1.7 | 2.3
10 | Benzoyl-[Cha27,36, Ile28, Phe(4NH2)31]-PYY(25-36) (Bz-RH[Cha]INL[Phe(4-NH2)]TRQR[Cha]-NH2; SMILES CC[C@H](C)[C@H](NC(=O)[C@H](CC1CCCCC1)NC(=O)[C@H](Cc1c[nH]cn1)NC(=O)[C@H](CCCNC(=N)N)NC(=O)c1ccccc1)C(=O)N[C@@H](CC(N)=O)C(=O)N[C@@H](CC(C)C)C(=O)N[C@@H](Cc1ccc(N)cc1)C(=O)N[C@H](C(=O)N[C@@H](CCCNC(=N)N)C(=O)N[C@@H](CCC(N)=O)C(=O)N[C@@H](CCCNC(=N)N)C(=O)N[C@@H](CC1CCCCC1)C(N)=O)[C@@H](C)O) [compound No. 72] | 5.4 | 5.0
